Results on four molecules are retold here after patent US20030113867A1.

Test [1] addresses prokineticin receptor(s) of guinea pig ileal smooth muscle (ileal membrane preparation / ileum longitudinal muscle) (guinea pig). The test can be described thus: cell-based or functional assay.
Test [2] deals with prokineticin receptor expressed endogenously on M2A7 melanoma cells (ATCC CRL-2500). The experiment in a line: cell-based or functional assay.
Test [3] addresses prokineticin receptor(s) of guinea pig ileal smooth muscle (ileal membrane preparation / ileum longitudinal muscle) (guinea pig). The experiment in a line: displacement of 125I-prokineticin 1 (20 pM) from guinea pig ileal membranes by unlabeled prokineticin 2, low-affinity site.
The target is the same in test [4]. The test can be described thus: competition radioligand binding on guinea pig ileal membranes, filtration; unlabeled prokineticin 2 varied against 125I-prokineticin 1 (20 pM).
Test [5] shares this target. The test can be described thus: displacement of 125I-prokineticin 1 (20 pM) from guinea pig ileal membranes by unlabeled prokineticin 2, high-affinity site.
Test [6] has the same target. The test can be described thus: displacement of 125I-prokineticin 1 (20 pM) from guinea pig ileal membranes by unlabeled prokineticin 1, two-site model, low-affinity site.
The target of test [7] is prokineticin receptor expressed endogenously on M2A7 melanoma cells (ATCC CRL-2500). The experiment in a line: binding of iodinated prokineticin 1 to M2A7 melanoma cells.
The target of test [8] is prokineticin receptor(s) of guinea pig ileal smooth muscle (ileal membrane preparation / ileum longitudinal muscle) (guinea pig). The test can be described thus: saturation binding of 125I-prokineticin 1 to guinea pig ileal membranes, Scatchard analysis, two-site model, high-affinity site, n=3.
Test [9] shares this target. The experiment in a line: saturation binding of 125I-prokineticin 1 to guinea pig ileal membranes, high-affinity site, n=3.
Test [10] shares this target. The test can be described thus: saturation binding of 125I-prokineticin 1 to guinea pig ileal membranes, low-affinity site, n=3.
Test [11] shares this target. The test can be described thus: displacement of 125I-prokineticin 1 (20 pM) from guinea pig ileal membranes by unlabeled prokineticin 1, two-site model, high-affinity site.
Test [12] has the same target. The experiment in a line: competition radioligand binding on guinea pig ileal membranes, filtration; unlabeled prokineticin 1 varied against 125I-prokineticin 1 (20 pM).
Test [13] shares this target. The experiment in a line: saturation binding of 125I-prokineticin 1 to guinea pig ileal membranes, Scatchard analysis, two-site model, low-affinity site, n=3.

B1: chimeric prokineticin 21 (exons 1 and 2 of prokineticin 2, exon 3 of prokineticin 1) (ligand)
chain: AVITGACDKDSQCGGGMCCAVSIWVKSIRICTPMGKLGDSCHPLTRKVPFFRKRKHHTCPCLPNLLCSRFPDGRYRCSMDLKNINF
As for B1, in test [1], the EC50 of ileal contraction relative to prokineticin 1 or prokineticin 2 was 8 fold and the time constant to midway contraction of ileal strips came to 40 min.

B2: recombinant refolded human prokineticin 2 with C-terminal 6xHis-tag (ligand)
chain: AVITGACDKDSQCGGGMCCAVSIWVKSIRICTPMGKLGDSCHPLTRKVPFFGRRMHHTCPCLPGLACLRTSFNRFICLAQKHHHHHH
As for B2, in [1], the contraction of guinea-pig ileum longitudinal muscle, ED50 was 0.9 nM. The same molecule came in with a time constant to midway contraction of ileal strips in test [1] of 15 min. In addition, the calcium mobilization in M2A7 melanoma cells (FLIPR), EC50 in test [2] turned out to be 21 nM. Also, the inhibitory constant (Ki) was 1.22 nM in [3] and 0.0042 nM in [5]. The IC50 (read off the curve) in test [4] turned out to be 4 nM.

B3: recombinant refolded human prokineticin 1 with C-terminal 6xHis-tag (ligand)
chain: AVITGACERDVQCGAGTCCAISLWLRGLRMCTPLGREGEECHPGSHKVPFFRKRKHHTCPCLPNLLCSRFPDGRYRCSMDLKNINFHHHHHH
modifications: 125I-iodinated by the iodogen method where used as the labeled ligand; plain where used as unlabeled competitor; five disulfide bonds
Regarding B3, the contraction of guinea-pig ileum longitudinal muscle, ED50 in test [1] came to 0.46 nM. The time constant to midway contraction of ileal strips in test [1] worked out at 15 min. In test [2], the calcium mobilization in M2A7 melanoma cells (FLIPR), EC50 was found to be 12 nM. For the same molecule, the Ki in [6] turned out to be 1.5 nM; in test [11], 0.008 nM. In addition, the receptor level (fmole/mg protein) in [7] amounted to 150. Besides, the figures for the Kd in test [8] and in test [13] were 0.005 nM and 0.227 nM, respectively. The Bmax (fmol/mg of protein) in test [9] was 7.8; in [10], 26.4. Moreover, in [12], the IC50 (read off the curve) amounted to 5 nM.

B4: chimeric prokineticin 12 (exons 1 and 2 of prokineticin 1, exon 3 of prokineticin 2) (ligand)
chain: AVITGACERDVQCGAGTCCAISLWLRGLRMCTPLGREGEECHPGSHKVPFFGRRMHHTCPCLPGLACLRTSFNRFICLAQK
In turn, B4 showed a time constant to midway contraction of ileal strips in test [1] of 40 min.
